One assay deals with IgG1 Fc^E382A (human). The experiment in a line: crystal structure; IdeS^C94A and IgG1 Fc^E382A combined 1:1, complex purified by SEC, exchanged into 50 mM HEPES, 150 mM KCl pH 7.5; crystals in Morpheus condition (0.12 M monosaccharides mix, buffer system 3 pH 8.5, 30 % precipitant mix 1); space group C121, twinned data, 2.34 Å. A general note: SEC sorts molecules by how far they enter the pores of the column.

Another assay addresses IgG1 Fc^E382R (human). The experiment in a line: crystal structure; EndoS^D233A/E235L and IgG1 Fc^E382R combined 1:1, complex purified by SEC, exchanged into 50 mM HEPES, 150 mM KCl pH 7.5; crystals in Morpheus condition (0.09 M halogens, buffer system 2 pH 7.5, 37.5 % precipitant mix 4); space group P2_(1)2_(1)2_(1), 3.45 Å.

A word on the stoichiometry N: it is the number of molecules, sites or subunits per partner or assembly.

“IdeS^C94A (IdeS from Streptococcus pyogenes strain MGAS15252, Mac-2 variant, amino acids 41-339) (enzyme)”: in the assay with IgG1 Fc^E382A (human), the stoichiometry N was 1 IdeS per Fc.

For the substance “EndoS^D233A/E235L (truncated EndoS, residues 98-995) (from UniProt Q99Y92 98-995) (enzyme)”, the stoichiometry N (EndoS per IgG1 Fc molecule) with IgG1 Fc^E382R (human) stood at 2.

The values above are taken from publication PMC9759587.
